For assay [1], the target named is PSD-95 PDZ1 6xHis (human). The assay can be described thus: ITC.
The target of assay [2] is PSD-95 PDZ1-2 6xHis (human). In words: ITC. In general terms: ITC needs no label: the signal is the heat of the interaction.

We go through one molecule from paper PMC8567388.

B1: Stargazin_CT (aa 203-323) (domain or fragment)
chain: DRHKQLRATARATDYLQASAITRIPSYRYRYQRRSRSSSRSTEPSHSRDASPVGVKGFNTLPSTEISMYTLSRDPLKAATTPTATYNSDRDNSFLQVHNCIQKDSKDSLHANTANRRTTPV
Take B1: the results for the dissociation constant Kd in assay [1] and in assay [2] were 100 µM and 12 µM, respectively.
